Measured values from PMC5308896, “A conformational switch regulates the ubiquitin ligase HUWE1” (eLife, 2017).
Ends that are not written are not given here.

Experiments:
HUWE1 (3896–4374) = target: T1, HUWE1 (3896–4374) (human, UniProt Q7Z6Z7 3896-4374); assay: fluorescence polarisation; apparent KD; constant 1 μM TAMRA-labelled p14ARF (45–64) peptide titrated with HUWE1 protein; 25°C, 20 mM HEPES pH 8.0, 150 mM NaCl, 10% glycerol, 1 mM EDTA, 5 mM DTT; three independent experiments; details: both partners purified
T1 construct: source: LOBSTR RIL cells, purified (IMAC, gel filtration)
T1 sequence (looked up): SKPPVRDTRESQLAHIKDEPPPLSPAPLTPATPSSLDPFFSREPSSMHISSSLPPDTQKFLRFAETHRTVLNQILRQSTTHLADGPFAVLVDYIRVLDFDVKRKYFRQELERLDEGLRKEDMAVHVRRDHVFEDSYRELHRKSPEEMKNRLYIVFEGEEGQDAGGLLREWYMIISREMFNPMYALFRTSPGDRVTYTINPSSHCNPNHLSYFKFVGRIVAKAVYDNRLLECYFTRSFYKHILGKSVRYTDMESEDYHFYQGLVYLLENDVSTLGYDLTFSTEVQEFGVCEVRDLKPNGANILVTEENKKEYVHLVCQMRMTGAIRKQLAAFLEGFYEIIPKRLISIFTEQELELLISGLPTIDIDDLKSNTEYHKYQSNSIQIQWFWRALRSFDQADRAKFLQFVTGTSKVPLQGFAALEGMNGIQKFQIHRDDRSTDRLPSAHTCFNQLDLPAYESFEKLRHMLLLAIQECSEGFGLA

HUWE1 (3759–4374) = target: T2, HUWE1 (3759–4374) (human, UniProt Q7Z6Z7 3759-4374); assay: as above; details: both partners purified
T2 construct: also called extended C-terminal HUWE1 fragment; source: LOBSTR RIL cells, purified (IMAC, gel filtration)
T2 sequence (looked up): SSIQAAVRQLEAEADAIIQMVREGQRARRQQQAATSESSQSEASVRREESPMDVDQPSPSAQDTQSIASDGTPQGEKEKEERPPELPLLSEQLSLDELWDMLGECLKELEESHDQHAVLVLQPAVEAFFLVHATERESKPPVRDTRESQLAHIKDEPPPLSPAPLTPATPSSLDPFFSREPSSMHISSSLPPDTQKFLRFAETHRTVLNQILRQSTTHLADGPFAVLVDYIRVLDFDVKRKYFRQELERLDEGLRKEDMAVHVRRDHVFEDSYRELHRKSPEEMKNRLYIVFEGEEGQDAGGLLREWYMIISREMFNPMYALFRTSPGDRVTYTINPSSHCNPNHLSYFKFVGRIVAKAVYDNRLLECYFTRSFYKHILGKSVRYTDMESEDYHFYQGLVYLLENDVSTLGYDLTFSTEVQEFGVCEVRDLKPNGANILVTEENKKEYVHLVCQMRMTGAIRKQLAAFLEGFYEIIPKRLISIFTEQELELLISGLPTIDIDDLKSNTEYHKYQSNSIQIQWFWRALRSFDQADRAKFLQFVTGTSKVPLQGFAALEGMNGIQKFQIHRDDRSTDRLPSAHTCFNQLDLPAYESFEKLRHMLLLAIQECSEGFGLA

B1: fluorophor-labeled p14ARF-derived peptide (residues 45–64), TAMRA-labelled (peptide)
peptide: LVLMLLRSQRLGQQPLPRRPK(TAMRA)
notes: p14ARF (alternative reading frame product of CDKN2A), human, residues 45–64; additional lysine residue at the C-terminus that carries the TAMRA label (told in words); also called p14ARF-peptide; p14ARF (45-64); source: synthetic peptide, bought: Elim Biopharm
B1 showed a Kd (HUWE1 (3896–4374)) of 340 ± 60 µM and a Kd (HUWE1 (3759–4374)) of 7.7 ± 0.4 µM.
